In patent US20240124553A1:

How the values were obtained:
Experiment in all cases: flow cytometry, transfected 293T cells
[1] = biological target: CHIKV E2-E1 envelope glycoproteins (strain S27), E2 mutant A33S (chikungunya virus strain S27) (UniProt Q8JUX5)
[2] = biological target: CHIKV E2-E1 envelope glycoproteins (strain S27), E2 mutant A76S (chikungunya virus strain S27) (UniProt Q8JUX5)
[3] = biological target: CHIKV E2-E1 envelope glycoproteins (strain S27), E2 mutant A89S (chikungunya virus strain S27) (UniProt Q8JUX5)
[4] = biological target: CHIKV E2-E1 envelope glycoproteins (strain S27), E2 mutant C91A (chikungunya virus strain S27) (UniProt Q8JUX5)
[5] = biological target: CHIKV E2-E1 envelope glycoproteins (strain S27), E2 mutant E35A (chikungunya virus strain S27) (UniProt Q8JUX5)
[6] = biological target: CHIKV E2-E1 envelope glycoproteins (strain S27), E2 mutant G108A (chikungunya virus strain S27) (UniProt Q8JUX5)
[7] = biological target: CHIKV E2-E1 envelope glycoproteins (strain S27), E2 mutant H127A (chikungunya virus strain S27) (UniProt Q8JUX5)
[8] = biological target: CHIKV E2-E1 envelope glycoproteins (strain S27), E2 mutant H131A (chikungunya virus strain S27) (UniProt Q8JUX5)
[9] = biological target: CHIKV E2-E1 envelope glycoproteins (strain S27), E2 mutant I121A (chikungunya virus strain S27) (UniProt Q8JUX5)
[10] = biological target: CHIKV E2-E1 envelope glycoproteins (strain S27), E2 mutant I48A (chikungunya virus strain S27) (UniProt Q8JUX5)
[11] = biological target: CHIKV E2-E1 envelope glycoproteins (strain S27), E2 mutant I54A (chikungunya virus strain S27) (UniProt Q8JUX5)
[12] = biological target: CHIKV E2-E1 envelope glycoproteins (strain S27), E2 mutant I56A (chikungunya virus strain S27) (UniProt Q8JUX5)
[13] = biological target: CHIKV E2-E1 envelope glycoproteins (strain S27), E2 mutant K120A (chikungunya virus strain S27) (UniProt Q8JUX5)
[14] = biological target: CHIKV E2-E1 envelope glycoproteins (strain S27), E2 mutant K66A (chikungunya virus strain S27) (UniProt Q8JUX5)
[15] = biological target: CHIKV E2-E1 envelope glycoproteins (strain S27), E2 mutant L102A (chikungunya virus strain S27) (UniProt Q8JUX5)
[16] = biological target: CHIKV E2-E1 envelope glycoproteins (strain S27), E2 mutant L34A (chikungunya virus strain S27) (UniProt Q8JUX5)
[17] = biological target: CHIKV E2-E1 envelope glycoproteins (strain S27), E2 mutant M70A (chikungunya virus strain S27) (UniProt Q8JUX5)
[18] = biological target: CHIKV E2-E1 envelope glycoproteins (strain S27), E2 mutant M97A (chikungunya virus strain S27) (UniProt Q8JUX5)
[19] = biological target: CHIKV E2-E1 envelope glycoproteins (strain S27), E2 mutant N72A (chikungunya virus strain S27) (UniProt Q8JUX5)
[20] = biological target: CHIKV E2-E1 envelope glycoproteins (strain S27), E2 mutant P106A (chikungunya virus strain S27) (UniProt Q8JUX5)
[21] = biological target: CHIKV E2-E1 envelope glycoproteins (strain S27), E2 mutant P133A (chikungunya virus strain S27) (UniProt Q8JUX5)
[22] = biological target: CHIKV E2-E1 envelope glycoproteins (strain S27), E2 mutant P75A (chikungunya virus strain S27) (UniProt Q8JUX5)
[23] = biological target: CHIKV E2-E1 envelope glycoproteins (strain S27), E2 mutant Q53A (chikungunya virus strain S27) (UniProt Q8JUX5)
[24] = biological target: CHIKV E2-E1 envelope glycoproteins (strain S27), E2 mutant R119A (chikungunya virus strain S27) (UniProt Q8JUX5)
[25] = biological target: CHIKV E2-E1 envelope glycoproteins (strain S27), E2 mutant R68A (chikungunya virus strain S27) (UniProt Q8JUX5)
[26] = biological target: CHIKV E2-E1 envelope glycoproteins (strain S27), E2 mutant R80A (chikungunya virus strain S27) (UniProt Q8JUX5)
[27] = biological target: CHIKV E2-E1 envelope glycoproteins (strain S27), E2 mutant S118A (chikungunya virus strain S27) (UniProt Q8JUX5)
[28] = biological target: CHIKV E2-E1 envelope glycoproteins (strain S27), E2 mutant S124A (chikungunya virus strain S27) (UniProt Q8JUX5)
[29] = biological target: CHIKV E2-E1 envelope glycoproteins (strain S27), E2 mutant T110A (chikungunya virus strain S27) (UniProt Q8JUX5)
[30] = biological target: CHIKV E2-E1 envelope glycoproteins (strain S27), E2 mutant T126A (chikungunya virus strain S27) (UniProt Q8JUX5)
[31] = biological target: CHIKV E2-E1 envelope glycoproteins (strain S27), E2 mutant T42A (chikungunya virus strain S27) (UniProt Q8JUX5)
[32] = biological target: CHIKV E2-E1 envelope glycoproteins (strain S27), E2 mutant T92A (chikungunya virus strain S27) (UniProt Q8JUX5)
[33] = biological target: CHIKV E2-E1 envelope glycoproteins (strain S27), E2 mutant V85A (chikungunya virus strain S27) (UniProt Q8JUX5)

Substance | Binding Reactivity (% WT) [1] | Binding Reactivity (% WT) [3] | Binding Reactivity (% WT) [4] | Binding Reactivity (% WT) [5] | Binding Reactivity (% WT) [6] | Binding Reactivity (% WT) [7] | Binding Reactivity (% WT) [8] | Binding Reactivity (% WT) [9] | Binding Reactivity (% WT) [10] | Binding Reactivity (% WT) [11] | Binding Reactivity (% WT) [12] | Binding Reactivity (% WT) [13] | Binding Reactivity (% WT) [15] | Binding Reactivity (% WT) [16] | Binding Reactivity (% WT) [17] | Binding Reactivity (% WT) [18] | Binding Reactivity (% WT) [19] | Binding Reactivity (% WT) [20] | Binding Reactivity (% WT) [21] | Binding Reactivity (% WT) [22] | also measured
CHIKV mAb C9 (antibody) | 86 % WT | 109 % WT | 0.6 % WT | 22.2 % WT | 71.9 % WT | 92.4 % WT | 24.4 % WT | 96.7 % WT | 10.7 % WT | 110 % WT | 114 % WT | 15.4 % WT | 31.2 % WT | 34.4 % WT | 81 % WT | 76.3 % WT | 112 % WT | 88.9 % WT | 87.2 % WT | 98.5 % WT | Binding Reactivity (% WT) [2]: 107 % WT; Binding Reactivity (% WT) [14]: 85.7 % WT; Binding Reactivity (% WT) [23]: 39.6 % WT; Binding Reactivity (% WT) [24]: 88 % WT; Binding Reactivity (% WT) [25]: 64.8 % WT; Binding Reactivity (% WT) [26]: 68.8 % WT; Binding Reactivity (% WT) [27]: 97.4 % WT; Binding Reactivity (% WT) [28]: 116 % WT; Binding Reactivity (% WT) [29]: 88 % WT; Binding Reactivity (% WT) [30]: 106 % WT; Binding Reactivity (% WT) [31]: 102 % WT; Binding Reactivity (% WT) [32]: 96 % WT; Binding Reactivity (% WT) [33]: 77.8 % WT
CHIKV mAb CHKV-88 (antibody) | 123 % WT | 118 % WT | 4 % WT | 55.9 % WT | 71.1 % WT | 91 % WT | 56.3 % WT | 111 % WT | 39.6 % WT | 116 % WT | 116 % WT | 82.3 % WT | 61.4 % WT | 58.3 % WT | 93.7 % WT | 85.1 % WT | 109 % WT | 105 % WT | 92.3 % WT | 115 % WT | Binding Reactivity (% WT) [2]: 122 % WT; Binding Reactivity (% WT) [14]: 103 % WT; Binding Reactivity (% WT) [23]: 85 % WT; Binding Reactivity (% WT) [24]: 99.5 % WT; Binding Reactivity (% WT) [25]: 74.7 % WT; Binding Reactivity (% WT) [26]: 128 % WT; Binding Reactivity (% WT) [27]: 117 % WT; Binding Reactivity (% WT) [28]: 112 % WT; Binding Reactivity (% WT) [29]: 107 % WT; Binding Reactivity (% WT) [30]: 95.1 % WT; Binding Reactivity (% WT) [31]: 112 % WT; Binding Reactivity (% WT) [32]: 109 % WT; Binding Reactivity (% WT) [33]: 75.9 % WT
CHIKV mAb IM-CKV063 (antibody) | 99.4 % WT | 84 % WT | 1.5 % WT | 19.1 % WT | 59 % WT | 96.1 % WT | 16.5 % WT | 109 % WT | 7.9 % WT | 102 % WT | 111 % WT | 13.1 % WT | 24.1 % WT | 29.4 % WT | 81.7 % WT | 69.9 % WT | 114 % WT | 94.3 % WT | 73.9 % WT | 96.4 % WT | Binding Reactivity (% WT) [2]: 107 % WT; Binding Reactivity (% WT) [14]: 84.2 % WT; Binding Reactivity (% WT) [23]: 37.3 % WT; Binding Reactivity (% WT) [24]: 72 % WT; Binding Reactivity (% WT) [25]: 67.1 % WT; Binding Reactivity (% WT) [26]: 86.3 % WT; Binding Reactivity (% WT) [27]: 93.1 % WT; Binding Reactivity (% WT) [28]: 97.8 % WT; Binding Reactivity (% WT) [29]: 88.1 % WT; Binding Reactivity (% WT) [30]: 83.4 % WT; Binding Reactivity (% WT) [31]: 111 % WT; Binding Reactivity (% WT) [32]: 84.5 % WT; Binding Reactivity (% WT) [33]: 74.5 % WT
CHIKV mAb IM-CKV065 (antibody) | 123 % WT | 111 % WT | -2 % WT | 11.7 % WT | 34.8 % WT | 81.9 % WT | 3.2 % WT | 111 % WT | 0.3 % WT | 80.8 % WT | 102 % WT | 0.4 % WT | 4.7 % WT | 16.3 % WT | 104 % WT | 65.7 % WT | 103 % WT | 98.1 % WT | 66.6 % WT | 84.9 % WT | Binding Reactivity (% WT) [2]: 125 % WT; Binding Reactivity (% WT) [14]: 99.6 % WT; Binding Reactivity (% WT) [23]: 43.3 % WT; Binding Reactivity (% WT) [24]: 120 % WT; Binding Reactivity (% WT) [25]: 88.1 % WT; Binding Reactivity (% WT) [26]: 125 % WT; Binding Reactivity (% WT) [27]: 86 % WT; Binding Reactivity (% WT) [28]: 97.3 % WT; Binding Reactivity (% WT) [29]: 72.1 % WT; Binding Reactivity (% WT) [30]: 67.2 % WT; Binding Reactivity (% WT) [31]: 104 % WT; Binding Reactivity (% WT) [32]: 93.2 % WT; Binding Reactivity (% WT) [33]: 88.1 % WT
Mxra8-Fc (mouse Mxra8 extracellular domain fused to mouse IgG2b Fc) (Fc fusion) | 85.3 % WT | 102 % WT | 1 % WT | 11 % WT | 76.7 % WT | 78 % WT | 15.7 % WT | 12.1 % WT | 11.1 % WT | 104 % WT | 91.7 % WT | 1.8 % WT | 22.8 % WT | 28.3 % WT | 110 % WT | 95.1 % WT | 128 % WT | 91.2 % WT | 81.3 % WT | 86.7 % WT | Binding Reactivity (% WT) [23]: 26.3 % WT; Binding Reactivity (% WT) [24]: 0 % WT; Binding Reactivity (% WT) [25]: 66.1 % WT; Binding Reactivity (% WT) [26]: 131 % WT; Binding Reactivity (% WT) [27]: 89.6 % WT; Binding Reactivity (% WT) [28]: 92.8 % WT; Binding Reactivity (% WT) [29]: 99.6 % WT; Binding Reactivity (% WT) [30]: 76 % WT; Binding Reactivity (% WT) [31]: 95.7 % WT; Binding Reactivity (% WT) [32]: 98.6 % WT; Binding Reactivity (% WT) [33]: 84.6 % WT
